The values below come from the supplement of paper PMC12764529.

± gives the half width of the 95% confidence interval.

Series [1] can be described thus: folding stability dG unfold from trypsin proteolysis; higher = more stable. The procedure, abridged:
(§1)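 Sequencing followed digestion of designed mini-proteins with trypsin and chymotrypsin, each at 11 concentrations in threefold dilutions together with a no-protease condition. The mini-proteins were under 80 residues, had no cysteine, sat in a PA-tagged cDNA display construct, and were kept only if AlphaFold2 dimer inter-PAE was above 15. From the counts, Bayesian fitting gave K50, and unfolding free energy was derived against a sequence-predicted unfolded-state K50 and a shared folded-state K50, per protease or combined.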

The nature of series [2]: folding stability dG unfold from chymotrypsin proteolysis; higher = more stable. Put shortly: as §1
A short description of series [3]: folding stability dG unfold (combined trypsin and chymotrypsin); higher = more stable. The procedure, abridged:
as §1

Turning to “SAGPDKPLKIESIGGKFNPDNGVISIKLKVEDPGDGKTYDYTMQFPVRDPDNGKPYMFTFPMRIKVPDSAGG [r19_129_TrROS]”, the “folding stability dG unfold” value in series [1] came to 0.645 ± 0.072 kcal/mol; in series [2], 0.647 ± 0.16 kcal/mol; in series [3], 0.607 ± 0.13 kcal/mol.
For “SAGPEKVREAARELFEKLNLPIVSEEAIEVGDAVLIRFEIPEIGTKITILAPVFENGEIKVIVKIEPVSSAG [r5_888_TrMRF]”, the results for the “folding stability dG unfold” value in series [1], in series [2] and in series [3] were 1.71 ± 0.069 kcal/mol, 1.58 ± 0.032 kcal/mol and 1.65 ± 0.091 kcal/mol, respectively.
Consider “SAGPIIIRVKYPDGRQIDINPENPWQIQIWDPGGKKETYPFDSNEDAKDKVVDWLGEEHGWPIKDVEIVSAG [r5_119_TrROS]”, for which the “folding stability dG unfold” value in series [1] is 0.373 ± 0.043 kcal/mol; in series [2] it was 0.35 ± 0.059 kcal/mol; in series [3], 0.403 ± 0.11 kcal/mol.
On to “SAGPKIRTIIKEILKELNPDRPIEIHTHPDGFIIIVNPDDGRFIMIKIDPDGDIKISEVVPAEEMKKMMSAG [r5_852_TrROS]”, for which the results for the “folding stability dG unfold” value in series [1], in series [2] and in series [3] were 1.84 ± 0.033 kcal/mol, 1.17 ± 0.058 kcal/mol and 1.49 ± 0.13 kcal/mol, respectively.
With “SAGPKKKVEIDVHIMIPFKSWEDRELMLYYARKFAPYIARELAKQNGLPPGVDEVKVDVNIMIIPPGQMSAG [r5_436_TrROS]”, the “folding stability dG unfold” value in series [1] came out at 2.84 ± 0.12 kcal/mol; in series [2], 3.87 ± 0.04 kcal/mol; in series [3] it was 3.34 ± 0.12 kcal/mol.
On the same counts, the results for “SAGPKTLLLNIPPGEDVELLIGDKPYRIKVDPERLIGYAFDPETGEIFLIFHDPEKPIALITVFPSPPLSAG [r5_302_TrMRF]” are 1.56 ± 0.042 kcal/mol, 2.46 ± 0.11 kcal/mol and 2.18 ± 0.12 kcal/mol.
As to “SAGPPEQKIKIKWYPPDDGQPQEIPGPVDDIKDILDKLGWPVTNIETDPDDNEVEIWVPFPNWWLHIKISAG [r5_521_TrROS]”, the “folding stability dG unfold” value worked out at 0.884 ± 0.036 kcal/mol in series [1], 1.79 ± 0.069 kcal/mol in series [2] and 1.53 ± 0.12 kcal/mol in series [3].
For “SAGPPGMRMVPFTIELPGKKIEIHVMEYPNGPPQYMVEIEDPNGKPKWTIMVTGPEARDLLEKAGIKFSAGG [r19_90_TrROS]”, the “folding stability dG unfold” value in series [1] amounted to 0.438 ± 0.1 kcal/mol; in series [2], 1.23 ± 0.14 kcal/mol; in series [3] it was 1.01 ± 0.1 kcal/mol.
Take “SAGPPGQPVKTIEIMIEFPPGQTMEEARERVEEIADEIQRKFPKIKSIDVDVQKDDDTYYVNANITIPYSAG [r5_446_TrROS]”: the “folding stability dG unfold” value in series [1] is 0.848 ± 0.048 kcal/mol; in series [2], 0.372 ± 0.19 kcal/mol; in series [3] it was 0.688 ± 0.19 kcal/mol.
With “SAGPPKTRTVMFPPEDIPKILEELKKLPPDITIHFPDPDPGNWFMIEVTDDEIKIENPGNGEERTIPISAGG [r19_154_TrROS]”, the figures for the “folding stability dG unfold” value in series [1], in series [2] and in series [3] were -0.712 ± 0.24 kcal/mol, 0.252 ± 0.11 kcal/mol and 0.0412 ± 0.16 kcal/mol, respectively.
On to “SAGPPPWMVIRIPFWVKVTPDDGIITIEFKIEIGNKEFKIKITIPIPPELADAPPGETIPIPIWIFIRPSAG [r5_714_TrROS]”, for which the “folding stability dG unfold” value in series [1] is 3.99 ± 0.16 kcal/mol; in series [2] it was 5.13 ± 0.062 kcal/mol; in series [3], 4.81 ± 0.13 kcal/mol.
On to “SAGPSLEVEVERLPGPYVRITARYSRDVPVEVLVEELRAAAPVEVRVEEDPERDFVTVVAVLPLAPDAGSAG [r5_742_TrMRF]”, for which the “folding stability dG unfold” value in series [1] turned out to be 1.28 ± 0.031 kcal/mol; in series [2], 1.46 ± 0.069 kcal/mol; in series [3], 1.46 ± 0.08 kcal/mol.
Turning to “SAGPTIMIPMPPKESLEEAVEKAIEWIREFFPDNLKPGKKIKIFVHVWDPDNGKQYWVTIEIPIPKGELSAG [r5_916_TrROS]”, the results for the “folding stability dG unfold” value in series [1], in series [2] and in series [3] were 2.48 ± 0.22 kcal/mol, 3.62 ± 0.057 kcal/mol and 3.19 ± 0.25 kcal/mol, respectively.
The corresponding values for “SAGPVLYRVTITVEVSSSGEKGKTLTLEFLVPPSVSGEEVRDRVLALLKAQGYKVEKITVTVTPLPSSASAG [r14_979_JUSTAS]” are 4.03 ± 0.21 kcal/mol, 5.36 ± 0.13 kcal/mol and 5.27 ± 0.14 kcal/mol.
For the sequence “SAGPVVLSPDDTVKIGKKELTFFSDGTVSVKYPDGTGESITVTVDPSSGNITLTETFTEPETGTTPVENSAG [r5_33_JUSTAS]”, the “folding stability dG unfold” value in series [1] was 0.473 ± 0.15 kcal/mol; in series [2], 1.48 ± 0.075 kcal/mol; in series [3] it was 1.17 ± 0.16 kcal/mol.
On the same counts, the results for “SAGPVVTLTVTVEIEVDGVRVEVTVTATLLPDGTVVITATVKVTLPNGETKTVTVTLTFPPGVDEVVLTSAG [r5_829_TrROS_Hall]” are 2.62 ± 0.15 kcal/mol, 3.42 ± 0.18 kcal/mol and 3.06 ± 0.25 kcal/mol.
Turning to “SAGPWITIPFKVKSLEEARNIIREIAQTFGLPMKVEDIQVTEDQLEKNREPGDPIRITVRYPNGREIEISAG [r5_503_TrROS]”, the “folding stability dG unfold” value in series [1] amounted to 1.64 ± 0.065 kcal/mol; in series [2], 1.69 ± 0.11 kcal/mol; in series [3], 1.64 ± 0.11 kcal/mol.
Consider “SAGQPGKPIRKYTFDLPDDDKITVEVYMYPDGNMMIKIEDNNGKERNIMIPANDLQNMPIEDLVKWLRSAGG [r19_47_TrROS]”, for which the “folding stability dG unfold” value in series [1] was determined as 2.73 ± 0.12 kcal/mol; in series [2], 3.57 ± 0.062 kcal/mol; in series [3], 3.33 ± 0.36 kcal/mol.
On the same counts, the results for “SAGSAEELKEKIREELRERLAKELGYPNIEIKKVEVLKYDPETGTITVKVELKLPDGKELTLTITVPVKSAG [r5_20_JUSTAS]” are 4.27 ± 0.34 kcal/mol, 3.63 ± 0.29 kcal/mol and 3.9 ± 0.41 kcal/mol.
As for “SAGSASSIKPISSTLDVRTDPETGKPVKATVYTYVLPSDGSSKQVPVPLSKKEPINLSPSDSYVTETRESAG [r5_950_JUSTAS]”, the “folding stability dG unfold” value in series [1] was -0.586 ± 0.17 kcal/mol; in series [2], -0.274 ± 0.27 kcal/mol; in series [3], -0.361 ± 0.22 kcal/mol.
The corresponding values for “SAGSGPGETKLVEEVEIDPVGPIKDSNGNPRPIKVVTKKLVEVTILEDGTVEKKVLETVVETLPPDVPLSAG [r5_132_JUSTAS]” are -0.498 ± 0.23 kcal/mol, -0.575 ± 0.1 kcal/mol and -0.662 ± 0.51 kcal/mol.
On to “SAGSGVILRTPEGKYVPLSALSEEEIKTAIEDPLSPAPPVTVEVTVTSVRLPVPRTVTTTEVVVTVLGSAGG [r19_232_JUSTAS]”, for which the figures for the “folding stability dG unfold” value in series [1], in series [2] and in series [3] were -0.00526 ± 0.21 kcal/mol, 0.233 ± 0.19 kcal/mol and 0.115 ± 0.19 kcal/mol, respectively.
On the same counts, the results for “SAGSIEAAVEALEKELREKGYKVSVELVETDPSDPNRLNLVIRVTVEGFSPESKPLGKKEETYVIEGGSAGG [r19_418_JUSTAS]” are 1.12 ± 0.031 kcal/mol, 1.45 ± 0.069 kcal/mol and 1.28 ± 0.14 kcal/mol.
Turning to “SAGSIPELIREAFPSKVDRVEVTTEKLPNGTTKTTIKVYVDDPEVAERLAKEINELSGEPLENLTVTEESAG [r5_542_JUSTAS]”, the “folding stability dG unfold” value in series [1] stood at 0.0676 ± 0.11 kcal/mol; in series [2], 0.981 ± 0.039 kcal/mol; in series [3], 0.652 ± 0.13 kcal/mol.
With “SAGSITIPIDDPEEMKDQLKNIAENFGMSNQDAEQFKDQLKENIEIHRDGDRWYITIQPPPPPDPGQPPSAG [r5_717_TrROS]”, the “folding stability dG unfold” value is 0.51 ± 0.15 kcal/mol in series [1], -0.145 ± 0.55 kcal/mol in series [2] and -0.121 ± 0.47 kcal/mol in series [3].
Consider “SAGSITITIETLPDGTIRITIPYTSEEEAKKVAEEVAKEIAEKLGEEVIKFEVTPEDDDTLILTIPIKKSAG [r5_772_JUSTAS]”, for which the entries for the “folding stability dG unfold” value in series [1], in series [2] and in series [3] were 1.15 ± 0.15 kcal/mol, 1.81 ± 0.092 kcal/mol and 1.78 ± 0.28 kcal/mol, respectively.
For the sequence “SAGSITTTDGNISRSVTYIPGLNLYLVTSTYPTSVSVDLVTEEGGTLTTTPVSTTPLPLPASSLSTTASAGG [r19_328_JUSTAS]”, the “folding stability dG unfold” value in series [1] was 0.207 ± 0.059 kcal/mol; in series [2], -0.16 ± 0.15 kcal/mol; in series [3], 0.0781 ± 0.091 kcal/mol.
As to “SAGSKEEKAKEIAKKLAEELKKKFPDLKIVEVKVVKIEYNKENKEIKITIYVYNKNGKLIKKIEITLPSAGG [r19_53_TrROS_Hall]”, the “folding stability dG unfold” value in series [1] was 3.58 ± 0.2 kcal/mol; in series [2], 4.63 ± 0.11 kcal/mol; in series [3] it was 4.38 ± 0.18 kcal/mol.
Take “SAGSKELVIVEKDEPVEGETLDYTNGKKKKFPKKVPVVKEIVLPKNSPEAEKIAKELSPPNVKVEILAKSAG [r5_468_JUSTAS]”: the “folding stability dG unfold” value was -1.08 ± 0.81 kcal/mol in series [1], -0.322 ± 0.11 kcal/mol in series [2] and -0.617 ± 0.32 kcal/mol in series [3].
On the same counts, the results for “SAGSMEALRALAEELAAEIAAAARAAGREVEVDITEVRPGEVRIRVTTTPPGGERTVEDIEIALPEERLSAG [r5_994_JUSTAS]” are 0.934 ± 0.018 kcal/mol, 1.82 ± 0.026 kcal/mol and 1.48 ± 0.034 kcal/mol.
Take “SAGSMEPGEVLNVTMTFYDTSGNKLGTVNFTFTDEEEAKKKIEELAKEIKEKLNKNVKVTVEINKSPSLSAG [r5_232_JUSTAS]”: the “folding stability dG unfold” value in series [1] was 3.5 ± 0.25 kcal/mol; in series [2], 4.59 ± 0.23 kcal/mol; in series [3], 4.76 ± 0.78 kcal/mol.
With “SAGSMLSVEEVEVTYNNPETGTPATIKLTVPVFYDPVTGRVEVEVEVEPSPEVPEEVAKEIAEKVKEKRSAG [r14_152_JUSTAS]”, the “folding stability dG unfold” value was -1.26 ± 0.95 kcal/mol in series [1], 0.494 ± 0.066 kcal/mol in series [2] and -0.0138 ± 0.35 kcal/mol in series [3].
For “SAGSMSFELTVDYEKLPDGTYRVRATITIYDPNNNNPLKTVDFEGEATSEEEAEARARARAEEVKEAASAGG [r19_255_JUSTAS]”, the “folding stability dG unfold” value in series [1] is 1.84 ± 0.078 kcal/mol; in series [2], 2.942 ± 0.023 kcal/mol; in series [3] it was 2.69 ± 0.17 kcal/mol.
In the case of “SAGSMVLTEDKEFEVDYVLPDGTRLTEPVKVKVKTTTVFLKNNSSLVLTFTTVTLTDPKGNKVTFSGSVSAG [r5_257_JUSTAS]”, the “folding stability dG unfold” value in series [1] was 2.31 ± 0.074 kcal/mol; in series [2], 2.969 ± 0.018 kcal/mol; in series [3], 2.7 ± 0.1 kcal/mol.
As to “SAGSPLTLSEKTSYDPSTGVTTRTFTFPDGTTRTTATVTVPGTGTLLTSTDFTQSPGTLTQSSGVAPLSAGG [r19_394_JUSTAS]”, the results for the “folding stability dG unfold” value in series [1], in series [2] and in series [3] were 0.392 ± 0.019 kcal/mol, 0.706 ± 0.031 kcal/mol and 0.616 ± 0.025 kcal/mol, respectively.
As to “SAGSPVVIKVSKVDSSGNWTLLEEIPIPPSEVSGVELVGDSLKILPPGSGGSYTFTIENSTVTVSIEESAGG [r19_408_JUSTAS]”, the “folding stability dG unfold” value in series [1] was 0.465 ± 0.038 kcal/mol; in series [2] it was 1.27 ± 0.084 kcal/mol; in series [3] it was 0.933 ± 0.06 kcal/mol.
